{
  "source": "patent US20070172423A1",
  "about": "“Composition and method for modulating vasculogenesis for angiogenesis” (priority 1998, published 2007)",
  "molecules": {"B1": {"name": "PDGF-CC: recombinant human PDGF-CC core domain homodimer, residues 230-345 of full-length PDGF-C (SEQ ID NO:40), produced in baculovirus infected insect cells (protein)", "chain": "GRKSRVVDLNLLTEEVRLYSCTPRNFSVSIREELKRTDTIFWPGCLLVKRCGGNCACCLHNCNECQCVPSKVTKKYHEVLQLRPKTGVRGLHKSLTDVALEHHEECDCVCRGSTGG", "modifications": "homodimer; PDGF-C core domain"}},
  "key": {"[1]": {"molecular_target": "PDGF alpha receptors (Homo sapiens, UniProt P16234)", "sequence (P16234 24-1089)": "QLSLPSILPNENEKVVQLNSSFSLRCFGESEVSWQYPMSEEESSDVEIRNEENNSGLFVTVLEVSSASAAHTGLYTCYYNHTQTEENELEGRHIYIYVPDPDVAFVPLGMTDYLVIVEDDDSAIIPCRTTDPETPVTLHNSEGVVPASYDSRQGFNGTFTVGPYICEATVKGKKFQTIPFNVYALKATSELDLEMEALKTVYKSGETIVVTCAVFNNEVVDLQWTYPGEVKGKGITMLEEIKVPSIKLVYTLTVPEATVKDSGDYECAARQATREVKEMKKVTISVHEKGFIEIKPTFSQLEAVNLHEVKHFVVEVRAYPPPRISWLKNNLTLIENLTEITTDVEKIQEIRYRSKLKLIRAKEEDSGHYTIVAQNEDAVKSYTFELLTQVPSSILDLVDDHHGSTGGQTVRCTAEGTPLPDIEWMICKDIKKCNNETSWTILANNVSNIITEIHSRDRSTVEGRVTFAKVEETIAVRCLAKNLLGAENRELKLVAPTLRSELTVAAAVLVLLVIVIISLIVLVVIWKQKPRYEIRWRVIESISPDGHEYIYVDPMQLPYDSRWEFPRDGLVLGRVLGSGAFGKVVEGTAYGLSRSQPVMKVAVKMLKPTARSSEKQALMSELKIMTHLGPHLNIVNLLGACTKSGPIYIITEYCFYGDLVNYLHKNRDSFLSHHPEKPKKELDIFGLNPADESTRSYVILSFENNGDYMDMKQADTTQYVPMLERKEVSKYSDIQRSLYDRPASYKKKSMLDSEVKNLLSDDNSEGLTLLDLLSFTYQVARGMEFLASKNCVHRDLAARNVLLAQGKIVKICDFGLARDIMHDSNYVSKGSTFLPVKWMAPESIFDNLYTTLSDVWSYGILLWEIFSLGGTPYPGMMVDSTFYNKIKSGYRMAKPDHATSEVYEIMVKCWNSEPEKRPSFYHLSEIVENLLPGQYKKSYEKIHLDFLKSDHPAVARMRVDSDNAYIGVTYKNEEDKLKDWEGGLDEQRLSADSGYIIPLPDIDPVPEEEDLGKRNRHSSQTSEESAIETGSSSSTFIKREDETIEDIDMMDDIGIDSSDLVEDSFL", "experiment": "Competition with 125I-PDGF-BB for binding to PAE-1 cells expressing PDGF alpha-receptor", "set-up": "expressed in transfected cells", "settings": "5 ng/ml 125I-PDGF-BB tracer, on ice 90 minutes", "experimental": "Next, full length and truncated PDGF-C were tested for their capacity to bind to human PDGF receptors alpha and beta by analyzing their abilities to compete with PDGF-BB for binding to PDGF receptors. The binding experiments were performed on porcine aortic endothelial-1 (PAE-1) cells stably expressing the human PDGF receptors alpha and beta (Eriksson et al., EMBO J, 1992, 11, 543-550). Binding experiments were performed essentially as in Heldin et al. (EMBO J, 1988, 7:1387-1393). Different concentrations of human full-length and truncated PDGF-C, or human PDGF-BB were mixed with 5 ng/ml of ^125I-PDGF-BB in binding buffer (PBS containing 1 mg/ml of bovine serum albumin). Aliquots were incubated with the receptor expressing PAE-1 cells plated in 24-well culture dishes on ice for 90 minutes. After three washes with binding buffer, cell-bound 125]-PDGF-BB was extracted by lysis of cells in 20 mM Tris-HCl, pH 7.5, 10% glycerol, 1% Triton X-100. The amount of cell bound radioactivity was determined in a gamma-counter. A standard curve for the binding of ^125I-labeled PDGF BB homodimers to PAE-1 cells expressing PDGF alpha-receptor is shown in FIG. 18."}, "[2]": {"test_system": "hSMC", "experiment": "hSMC proliferation assay", "type": "cell-based, human", "settings": "two days, different concentrations", "experimental": "Cell migration assays were performed on growth arrested confluent HMVEC, BAEC or hSMC cells. Cell monolayers were wounded with a rubber policeman and washed with serum-free medium. Dishes were then incubated for 20 hours in serum-free medium containing VEGF165, PDGF-AA, (R&D Systems, Minneapolis USA) or PDGF-CC. Each assay included two dishes per condition and was repeated three times independently. Cells were photographed at 40× magnification, and migration percentage corresponding to the ratio between area of the cells and the total area of the wound (Biocom visiol@b 2000 version 4.52, San Diego). For HMVEC proliferation assay, cells were seeded in 96-well plates (5 wells per condition), and incubated with VEGF, PDGF-AA, or PDGF-CC (50 ng/ml) after serum starvation. After 7 days, viable cells were counted using the cell Titer-glo luminescent cell viability assay. For NIH-3T3 and hSMC proliferation assay, cells cultured in 96-well plates were serum-starved overnight, followed by treatment with growth factors at different concentrations. Two days later, cell numbers were counted and proliferation percentage calculated, using cells cultured in medium containing 10% serum as control. Aortic ring assay was performed as described 51. […] Aortic rings were analysed at day 9 of culturing. […]"}, "[3]": {"molecular_target": "T1, human VEGFR-2 (Homo sapiens, UniProt P35968)", "T1 construct": "soluble Ig-fusion proteins containing the extracellular domains of human VEGFR-1, VEGFR-2 and VEGFR-3; made in house; host or cells: human 293 EBNA cells, transient expression", "T1 sequence (P35968 20-764 limits assumed)": "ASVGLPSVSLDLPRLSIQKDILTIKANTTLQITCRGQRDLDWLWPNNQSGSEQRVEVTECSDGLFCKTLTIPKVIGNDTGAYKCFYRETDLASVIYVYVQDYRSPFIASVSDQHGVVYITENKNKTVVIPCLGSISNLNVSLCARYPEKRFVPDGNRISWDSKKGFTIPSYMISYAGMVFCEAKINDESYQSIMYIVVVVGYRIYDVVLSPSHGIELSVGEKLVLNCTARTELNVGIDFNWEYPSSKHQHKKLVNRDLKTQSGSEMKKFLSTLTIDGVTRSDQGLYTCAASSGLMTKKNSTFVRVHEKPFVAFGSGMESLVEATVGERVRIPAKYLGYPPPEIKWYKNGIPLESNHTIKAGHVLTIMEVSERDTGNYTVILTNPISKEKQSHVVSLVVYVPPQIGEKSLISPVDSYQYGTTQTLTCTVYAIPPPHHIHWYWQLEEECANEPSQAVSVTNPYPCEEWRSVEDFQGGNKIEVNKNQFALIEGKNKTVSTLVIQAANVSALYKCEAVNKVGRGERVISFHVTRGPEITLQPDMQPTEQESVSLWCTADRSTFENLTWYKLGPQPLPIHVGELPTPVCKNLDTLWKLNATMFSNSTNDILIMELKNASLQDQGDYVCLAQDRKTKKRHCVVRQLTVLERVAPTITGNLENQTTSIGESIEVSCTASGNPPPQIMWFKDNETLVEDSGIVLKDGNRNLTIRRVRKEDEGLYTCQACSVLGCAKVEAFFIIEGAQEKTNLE", "experiment": "Binding to soluble VEGFR-2-Ig fusion protein", "settings": "35S-labeled protein in conditioned medium from 293 cells, precipitation with Ig-fusion protein", "experimental": "To assess the interactions between full length and truncated PDGF-C and the VEGF receptors, full length and truncated PDGF-C were tested for their capacity to bind to soluble Ig-fusion proteins containing the extracellular domains of human VEGFR-1, VEGFR-2 and VEGFR-3 (Olofsson et al., Proc. Natl. Acad. Sci. USA, 1998 95:11709-11714). The fusion proteins, designated VEGFR-1-Ig, VEGFR-2-Ig and VEGFR-3-Ig, were transiently expressed in human 293 EBNA cells. All Ig fusion proteins were human VEGFRs. Cells were incubated for 24 hours after transfection, washed with Dulbecco's Modified Eagle Medium (DMEM) containing 0.2% bovine serum albumin and starved for 24 hours. The fusion proteins were then precipitated from the clarified conditioned medium using protein A-Sepharose beads (Pharmacia). The beads were combined with 100 microliters of 10× binding buffer (5% bovine serum albumin, 0.2% Tween 20 and 10 µg/ml heparin) and 900 microliter of conditioned medium from 293 cells that had been transfected with mammalian expression plasmids encoding full length or truncated PDGF-C or control vector, then metabolically labeled with ^35S-cysteine and methionine (Promix, Amersham) for 4 to 6 hours. […] Labeled proteins that were bound to the Ig-fusion proteins were analyzed by SDS-PAGE under reducing conditions. Radiolabeled proteins were detected using a phosphorimager analyzer."}},
  "data": [
    {"molecule": "B1", "values": [
      {"measurement": "competition for binding to the PDGF alpha-receptor", "setting": "[1]", "value": "efficiently competed"},
      {"measurement": "proliferation of cultured hSMC cells", "setting": "[2]", "value": "stimulated"},
      {"measurement": "interaction with VEGFR-2-Ig", "setting": "[3]", "value": "failed to show any interaction"}
    ]}
  ]
}
